Assay results published in PMC6491607, “4-Coumarate 3-hydroxylase in the lignin biosynthesis pathway is a cytosolic ascorbate peroxidase” (Nature Communications, 2019).

Legend:
[1] = substrate: O=C1O[C@H]([C@@H](O)CO)C(O)=C1O; experiment: purified protein; conditions: H2O2 co-substrate, sodium phosphate pH 6, hemin reconstituted
[2] = substrate: O=C(O)/C=C/c1ccc(O)cc1; experiment: HPLC of product, Hill fit; type: biochemical, Arabidopsis thaliana; conditions: H2O2 co-substrate, ascorbate 4 mM, sodium phosphate pH 6, 30 °C, hemin reconstituted
[3] = substrate: N[C@@H](Cc1ccc(O)cc1)C(=O)O; experiment: HPLC of product (L-DOPA), Hill fit; type: biochemical, Arabidopsis thaliana; conditions: H2O2 co-substrate, ascorbate 4 mM, sodium phosphate pH 6, 30 °C, hemin reconstituted

B1: Arabidopsis C3H (4-coumarate 3-hydroxylase; cytosolic ascorbate peroxidase APX1) (Arabidopsis thaliana) (protein)
chain: MTKNYPTVSEDYKKAVEKCRRKLRGLIAEKNCAPIMVRLAWHSAGTFDCQSRTGGPFGTMRFDAEQAHGANSGIHIALRLLDPIREQFPTISFADFHQLAGVVAVEVTGGPDIPFHPGREDKPQPPPEGRLPDATKGCDHLRDVFAKQMGLSDKDIVALSGAHTLGRCHKDRSGFEGAWTSNPLIFDNSYFKELLSGEKEGLLQLVSDKALLDDPVFRPLVEKYAADEDAFFADYAEAHMKLSELGFADA
notes: full-length cDNA in pDEST17, N-terminal 6xHis tag kept, E. coli Rosetta, Ni-NTA purified, hemin reconstituted
K0.5 [1]: 299 ± 63 µM | kcat [1]: 181 s–1 | K0.5 [2]: 708 ± 154 µM | kcat [2]: 492 s–1 | K0.5 [3]: 653 ± 127 µM | kcat [3]: 599 s–1
